Results on one molecule are retold here after paper PMC2866327 (2010).

The assay deals with insulin-degrading enzyme (recombinant human IDE) (human, UniProt P14735 1-1019).

Square brackets hold non-standard residues; d marks the D form. Ends that are not written are not given here.

B1: retro-inverso peptide hydroxamate Xaa-Arg-Tyr with Phe at P1' (peptide)
peptide: Phe-[dR]-[dY]
modifications: not fully specified (residue 1, N-terminus); also: retro-inverso (reversed backbone)
One may read the Ki as a dissociation constant, usually derived from enzyme kinetics or from competition with a known ligand. On to B1, for which the inhibition constant (Ki) came to 20 µM.
